The experiment concerns the target VC-Vam7 (yeast) (UniProt P32912). In words: split reporter.

In publication PMC4729596 one finds percent of cells with a vYFP signal data, which are given here for one substance.

UniProt P32912, sequence (P32912 whole entry): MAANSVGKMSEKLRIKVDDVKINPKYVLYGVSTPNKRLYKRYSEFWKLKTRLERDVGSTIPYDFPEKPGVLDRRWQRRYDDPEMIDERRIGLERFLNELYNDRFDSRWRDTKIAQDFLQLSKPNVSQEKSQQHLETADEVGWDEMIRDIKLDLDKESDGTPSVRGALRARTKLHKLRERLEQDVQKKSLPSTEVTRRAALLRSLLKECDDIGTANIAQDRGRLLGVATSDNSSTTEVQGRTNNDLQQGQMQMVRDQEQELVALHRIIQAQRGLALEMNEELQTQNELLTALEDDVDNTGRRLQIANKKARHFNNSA

Regarding “VN-Atg11 (from UniProt Q12527 1-1178) (natural protein)”, the percent of cells with a vYFP signal was > 90 % of cells.
